Test results taken from patent US20190233493A1 (Sanofi, published 2019).
Blank lines part the entries; values can stand above or below the binder they belong to. *1 amine or outer side, *2 acyl side, *3 side chain or, on linkers, in order; H or OH if unused. Side-chain parts run from the residue outwards. [ ]: non-standard residue; d: D form. The star is where a group is joined. PEG12 = NCCOCCOCCOCCOCCOCCOCCOCCOCCOCCOCCOCCOCCC(=O)O; γGlu = O=C(O)[C@H](CCC(=O)[*:2])N[*:1]; 1Nal = N[C@@H](Cc1cccc2ccccc12)C(=O)O; Stearoyl = CCCCCCCCCCCCCCCCCC(=O)*; Palmitoyl = CCCCCCCCCCCCCCCC(=O)*; Nle = CCCC[C@H](N)C(=O)O; Aib = CC(C)(N)C(=O)O

Target: T1, RXFP1 receptor (UniProt Q9HBX9 1-757, limits assumed)
T1 sequence (looked up): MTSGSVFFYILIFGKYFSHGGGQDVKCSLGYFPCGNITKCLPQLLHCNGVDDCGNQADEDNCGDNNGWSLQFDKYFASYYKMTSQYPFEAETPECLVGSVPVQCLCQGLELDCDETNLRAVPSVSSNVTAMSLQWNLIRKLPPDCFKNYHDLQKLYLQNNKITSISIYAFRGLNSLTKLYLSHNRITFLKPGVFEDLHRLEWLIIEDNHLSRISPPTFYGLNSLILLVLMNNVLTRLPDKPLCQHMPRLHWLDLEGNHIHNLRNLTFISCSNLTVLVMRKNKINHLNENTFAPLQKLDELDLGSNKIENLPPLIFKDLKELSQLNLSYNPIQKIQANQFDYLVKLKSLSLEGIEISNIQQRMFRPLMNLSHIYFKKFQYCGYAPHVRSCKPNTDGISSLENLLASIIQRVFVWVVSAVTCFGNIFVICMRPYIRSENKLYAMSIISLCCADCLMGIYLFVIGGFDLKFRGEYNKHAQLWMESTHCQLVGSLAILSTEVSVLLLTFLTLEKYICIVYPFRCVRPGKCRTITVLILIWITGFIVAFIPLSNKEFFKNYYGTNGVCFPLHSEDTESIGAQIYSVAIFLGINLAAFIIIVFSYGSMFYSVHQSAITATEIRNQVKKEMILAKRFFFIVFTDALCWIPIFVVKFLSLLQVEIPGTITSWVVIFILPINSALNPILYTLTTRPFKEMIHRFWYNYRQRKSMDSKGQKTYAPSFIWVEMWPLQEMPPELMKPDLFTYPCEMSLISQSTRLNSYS
Assay: cell-based or functional assay

Binder: Ac-LEGREKVRAK(Ac)I[Aib][Aib]EG[Nle]STWS[Aib]RK[PEG12]K([γGlu-γGlu-γGlu-Stearoyl])-NH2 [peptide of SEQ ID NO: 34]
- EC50 (nM), OVCAR 5 cells (cAMP): 4.73 nM
- EMax, OVCAR 5 cells (cAMP): 95%

B2: peptide of SEQ ID NO: 36 (peptide)
peptide: Ac-LEGREKVR[Aib]K(Ac)I[Aib][Aib]EG[Nle]STWS[Aib]RKK(Ac)[PEG12]K([γGlu-γGlu-γGlu-Stearoyl])-NH2
SMILES: CCCCCCCCCCCCCCCCCC(=O)N[C@@H](CCC(=O)N[C@@H](CCC(=O)N[C@@H](CCC(=O)NCCCC[C@H](NC(=O)CCOCCOCCOCCOCCOCCOCCOCCOCCOCCOCCOCCOCCNC(=O)[C@H](CCCCNC(C)=O)NC(=O)[C@H](CCCCN)NC(=O)[C@H](CCCNC(=N)N)NC(=O)C(C)(C)NC(=O)[C@H](CO)NC(=O)[C@H](Cc1c[nH]c2ccccc12)NC(=O)[C@@H](NC(=O)[C@H](CO)NC(=O)[C@H](CCCC)NC(=O)CNC(=O)[C@H](CCC(=O)O)NC(=O)C(C)(C)NC(=O)C(C)(C)NC(=O)[C@@H](NC(=O)[C@H](CCCCNC(C)=O)NC(=O)C(C)(C)NC(=O)[C@H](CCCNC(=N)N)NC(=O)[C@@H](NC(=O)[C@H](CCCCN)NC(=O)[C@H](CCC(=O)O)NC(=O)[C@H](CCCNC(=N)N)NC(=O)CNC(=O)[C@H](CCC(=O)O)NC(=O)[C@H](CC(C)C)NC(C)=O)C(C)C)[C@@H](C)CC)[C@@H](C)O)C(N)=O)C(=O)O)C(=O)O)C(=O)O
- EC50 (nM), OVCAR 5 cells (cAMP): 0.89 nM
- EMax, OVCAR 5 cells (cAMP): 84%

B4: peptide of SEQ ID NO: 33 (peptide)
peptide: Ac-LEGREKVRAK(Ac)I[Aib][Aib]EG[Nle]STWS[Aib]RKK(Ac)[PEG12]K([γGlu-γGlu-γGlu-Stearoyl])-NH2
SMILES: CCCCCCCCCCCCCCCCCC(=O)N[C@@H](CCC(=O)N[C@@H](CCC(=O)N[C@@H](CCC(=O)NCCCC[C@H](NC(=O)CCOCCOCCOCCOCCOCCOCCOCCOCCOCCOCCOCCOCCNC(=O)[C@H](CCCCNC(C)=O)NC(=O)[C@H](CCCCN)NC(=O)[C@H](CCCNC(=N)N)NC(=O)C(C)(C)NC(=O)[C@H](CO)NC(=O)[C@H](Cc1c[nH]c2ccccc12)NC(=O)[C@@H](NC(=O)[C@H](CO)NC(=O)[C@H](CCCC)NC(=O)CNC(=O)[C@H](CCC(=O)O)NC(=O)C(C)(C)NC(=O)C(C)(C)NC(=O)[C@@H](NC(=O)[C@H](CCCCNC(C)=O)NC(=O)[C@H](C)NC(=O)[C@H](CCCNC(=N)N)NC(=O)[C@@H](NC(=O)[C@H](CCCCN)NC(=O)[C@H](CCC(=O)O)NC(=O)[C@H](CCCNC(=N)N)NC(=O)CNC(=O)[C@H](CCC(=O)O)NC(=O)[C@H](CC(C)C)NC(C)=O)C(C)C)[C@@H](C)CC)[C@@H](C)O)C(N)=O)C(=O)O)C(=O)O)C(=O)O
- EC50 (nM), OVCAR 5 cells (cAMP): 0.61 nM
- EMax, OVCAR 5 cells (cAMP): 100%

B5: peptide of SEQ ID NO: 35 (peptide)
peptide: Ac-LEGREKVRAK(Ac)I[Aib][Aib]EGMSTWS[Aib]RK[PEG12]K([γGlu-γGlu-γGlu-Stearoyl])-NH2
SMILES: CCCCCCCCCCCCCCCCCC(=O)N[C@@H](CCC(=O)N[C@@H](CCC(=O)N[C@@H](CCC(=O)NCCCC[C@H](NC(=O)CCOCCOCCOCCOCCOCCOCCOCCOCCOCCOCCOCCOCCNC(=O)[C@H](CCCCN)NC(=O)[C@H](CCCNC(=N)N)NC(=O)C(C)(C)NC(=O)[C@H](CO)NC(=O)[C@H](Cc1c[nH]c2ccccc12)NC(=O)[C@@H](NC(=O)[C@H](CO)NC(=O)[C@H](CCSC)NC(=O)CNC(=O)[C@H](CCC(=O)O)NC(=O)C(C)(C)NC(=O)C(C)(C)NC(=O)[C@@H](NC(=O)[C@H](CCCCNC(C)=O)NC(=O)[C@H](C)NC(=O)[C@H](CCCNC(=N)N)NC(=O)[C@@H](NC(=O)[C@H](CCCCN)NC(=O)[C@H](CCC(=O)O)NC(=O)[C@H](CCCNC(=N)N)NC(=O)CNC(=O)[C@H](CCC(=O)O)NC(=O)[C@H](CC(C)C)NC(C)=O)C(C)C)[C@@H](C)CC)[C@@H](C)O)C(N)=O)C(=O)O)C(=O)O)C(=O)O
- EC50 (nM), OVCAR 5 cells (cAMP): 1.69 nM
- EMax, OVCAR 5 cells (cAMP): 95%

B6: peptide of SEQ ID NO: 4 (peptide)
peptide: Ac-ELEGREKVRAAI[Aib][Aib]EG[Nle]STWS[Aib]RKK([γGlu-γGlu-Palmitoyl])-NH2
SMILES: CCCCCCCCCCCCCCCC(=O)N[C@@H](CCC(=O)N[C@@H](CCC(=O)NCCCC[C@H](NC(=O)[C@H](CCCCN)NC(=O)[C@H](CCCNC(=N)N)NC(=O)C(C)(C)NC(=O)[C@H](CO)NC(=O)[C@H](Cc1c[nH]c2ccccc12)NC(=O)[C@@H](NC(=O)[C@H](CO)NC(=O)[C@H](CCCC)NC(=O)CNC(=O)[C@H](CCC(=O)O)NC(=O)C(C)(C)NC(=O)C(C)(C)NC(=O)[C@@H](NC(=O)[C@H](C)NC(=O)[C@H](C)NC(=O)[C@H](CCCNC(=N)N)NC(=O)[C@@H](NC(=O)[C@H](CCCCN)NC(=O)[C@H](CCC(=O)O)NC(=O)[C@H](CCCNC(=N)N)NC(=O)CNC(=O)[C@H](CCC(=O)O)NC(=O)[C@H](CC(C)C)NC(=O)[C@H](CCC(=O)O)NC(C)=O)C(C)C)[C@@H](C)CC)[C@@H](C)O)C(N)=O)C(=O)O)C(=O)O
- EC50 (nM), OVCAR 5 cells (cAMP): 31.7 nM
- EMax, OVCAR 5 cells (cAMP): 99%

The remaining lines, values ahead:

- EC50 (nM), OVCAR 5 cells (cAMP): 0.21 nM
- EMax, OVCAR 5 cells (cAMP): 89%
B1: peptide of SEQ ID NO: 38 (peptide)
peptide: Ac-LEGREKVRAK(Ac)I[Aib][Aib]EG[Nle]STWS[Aib]RK[PEG12]K([γGlu-γGlu-γGlu-Palmitoyl])-NH2
SMILES: CCCCCCCCCCCCCCCC(=O)N[C@@H](CCC(=O)N[C@@H](CCC(=O)N[C@@H](CCC(=O)NCCCC[C@H](NC(=O)CCOCCOCCOCCOCCOCCOCCOCCOCCOCCOCCOCCOCCNC(=O)[C@H](CCCCN)NC(=O)[C@H](CCCNC(=N)N)NC(=O)C(C)(C)NC(=O)[C@H](CO)NC(=O)[C@H](Cc1c[nH]c2ccccc12)NC(=O)[C@@H](NC(=O)[C@H](CO)NC(=O)[C@H](CCCC)NC(=O)CNC(=O)[C@H](CCC(=O)O)NC(=O)C(C)(C)NC(=O)C(C)(C)NC(=O)[C@@H](NC(=O)[C@H](CCCCNC(C)=O)NC(=O)[C@H](C)NC(=O)[C@H](CCCNC(=N)N)NC(=O)[C@@H](NC(=O)[C@H](CCCCN)NC(=O)[C@H](CCC(=O)O)NC(=O)[C@H](CCCNC(=N)N)NC(=O)CNC(=O)[C@H](CCC(=O)O)NC(=O)[C@H](CC(C)C)NC(C)=O)C(C)C)[C@@H](C)CC)[C@@H](C)O)C(N)=O)C(=O)O)C(=O)O)C(=O)O

- EC50 (nM), OVCAR 5 cells (cAMP): 2.49 nM
- EMax, OVCAR 5 cells (cAMP): 83%
B3: peptide of SEQ ID NO: 37 (peptide)
peptide: Ac-LEGREKVR[Aib]K(Ac)I[Aib][Aib]EG[Nle]ST[1Nal]S[Aib]RKK(Ac)[PEG12]K([γGlu-γGlu-γGlu-Stearoyl])-NH2
SMILES: CCCCCCCCCCCCCCCCCC(=O)N[C@@H](CCC(=O)N[C@@H](CCC(=O)N[C@@H](CCC(=O)NCCCC[C@H](NC(=O)CCOCCOCCOCCOCCOCCOCCOCCOCCOCCOCCOCCOCCNC(=O)[C@H](CCCCNC(C)=O)NC(=O)[C@H](CCCCN)NC(=O)[C@H](CCCNC(=N)N)NC(=O)C(C)(C)NC(=O)[C@H](CO)NC(=O)[C@H](Cc1cccc2ccccc12)NC(=O)[C@@H](NC(=O)[C@H](CO)NC(=O)[C@H](CCCC)NC(=O)CNC(=O)[C@H](CCC(=O)O)NC(=O)C(C)(C)NC(=O)C(C)(C)NC(=O)[C@@H](NC(=O)[C@H](CCCCNC(C)=O)NC(=O)C(C)(C)NC(=O)[C@H](CCCNC(=N)N)NC(=O)[C@@H](NC(=O)[C@H](CCCCN)NC(=O)[C@H](CCC(=O)O)NC(=O)[C@H](CCCNC(=N)N)NC(=O)CNC(=O)[C@H](CCC(=O)O)NC(=O)[C@H](CC(C)C)NC(C)=O)C(C)C)[C@@H](C)CC)[C@@H](C)O)C(N)=O)C(=O)O)C(=O)O)C(=O)O
